pEC50: −log10 of the molar value.

What all share (assay): ELISA; APP fragment (12.2 nM, 50 µL/well) plated at 4°C overnight; p75^NTR ECD-Fc or IgG-Fc added at the indicated concentrations for 2 h at room temperature; detected by anti-human IgG-Fc; EC50 from sigmoid dose-response curve
For orientation: In an ELISA, binding on a coated surface is turned into a signal by an enzyme label.

The target in assay [1] is sAPPβ, recombinant, His-tagged.
Assay [2] concerns the target C-sAPPα (sAPPα 304–612), recombinant, His-tagged (UniProt P05067).
Assay [3] addresses Soluble β-amyloid Precursor Protein Alpha (sAPPα), recombinant, His-tagged (UniProt P05067).

With “recombinant p75^NTR extracellular domain fused to human Fc (p75^NTR ECD-Fc) chimera protein (from UniProt P08138 29-250) (Fc fusion)”, the values for the pEC50 in assay [1], in assay [2] and in assay [3] were 6.92, 6.82 and 7.05, respectively.

Values taken from publication PMC3864954.
